Laboratory results published in US20230136301A1, “Corticosteriod Reduction in Treatment with Anti-CD38 Antibody” (Janssen Biotech, Inc., priority 2021, published 2023).
Several values for one entry are separate records, joined by “and”; a condition that tells them apart may be missing. Equal values may be shown once.

Experiments:
[1] = system: patients with RRMM; assay: PAVO Part 3: infusion-related reactions (IRRs)
Experimental: Safety was assessed, with an emphasis on IRRs, while corticosteroids were reduced and discontinued.
The purpose of Part 3 was to evaluate the safety of daratumumab 1,800 mg SC delivery without predose and postdose corticosteroids after a 3-week, 2-week, and 1-week tapering schedule to assess the safety of corticosteroid-free SC daratumumab administration. […] In conjunction, patients also received a 3-week, 2-week, or 1-week steroid tapering schedule (FIG. 2). The 3-week tapering schedule (corticosteroid-free by Cycle 1 Day 22) consisted of methylprednisolone (MP) given orally (PO)/IV pre-dose (Cycle 1 Day 1, 100 mg; Cycle 1 Day 8, 60 mg; Cycle 1 Day 15, 30 mg) and PO post-dose (Cycle 1 Day 1, 20 mg for 2 days; Cycle 1 Day 8, 20 mg for 1 day; Cycle 1 Day 15, 20 mg for 1 day). The 2-week tapering schedule (corticosteroid-free by Cycle 1 Day 15) consisted of MP given PO/IV pre-dose (Cycle 1 Day 1, 100 mg; Cycle 1 Day 8, 60 mg) and PO post-dose (Cycle 1 Day 1, 20 mg for 2 days; Cycle 1 Day 8, 20 mg for 1 day). The 1-week tapering schedule (corticosteroid-free by Cycle 1 Day 8) consisted of dexamethasone 20 mg administered IV pre-dose on Cycle 1 Day 1, without post-dose administration.
The 3-week, 2-week and 1-week steroid tapering schedules were assessed by “3+3” design, followed by cohort expansion to approximately 15 patients (3-week and 2-week tapering cohorts) or 12 patients (1-week tapering cohort). The dose-limiting toxicity (DLT) assessment period in the 3-week, 2-week and 1-week tapering cohorts were Cycle 1 Day 1 through Cycle 2 Day 4, Cycle 1 Day 1 through Cycle 1 Day 25, and Cycle 1 Day 1 through Cycle 1 Day 11, respectively. […] Grade 3 or 4 IRRs only qualified as DLTs if they occurred during corticosteroid reduction or discontinuation (not during Cycle 1 Day 1). For the 3-week and 2-week groups, IRRs reported at Cycle 1 Day 1 were not considered DLTs, as corticosteroids had not yet been reduced or discontinued. Up to approximately 12 patients could be enrolled in the 1-week tapering schedule to assess safety, including IRRs.
Safety assessments included treatment-emergent adverse events (TEAEs), serious adverse events, and IRRs. All toxicities were graded according to the National Cancer Institute's Common Terminology for the Classification of Adverse Events (NCI-CTCAE) Version 4.03 (National Cancer Institute. Common Terminology Criteria for Adverse Events (CTCAE): Version 4.03.).

[2] = system: patients with RRMM; assay: PAVO Part 2: DARA SC safety and efficacy
[3] = PAVO Part 3: serum daratumumab concentration, pre-dose Cycle 3 Day 1; format: in vivo, human; details: Cycle 3 Day 1 pre-dose
[4] = system: patients with RRMM; details: PAVO Part 2; follow-up 14.2 months; cited from earlier work

Q: With “DARA SC: 1,800 mg daratumumab co-formulated with 30,000 U rHuPH20 (2,000 U/mL, 15 mL), manual subcutaneous injection” as the substance, how does the “Patients with an IRR” value ([1]; 1-week taper) read?
A: 2 (16.7%) n (%)

Q: And the “Patients with an IRR” value ([1]; 2-week taper)?
A: 3 (20.0%) n (%)

Q: And the “Patients with an IRR” value ([1]; 3-week taper)?
A: 0 (0%) n (%)

Q: And the “Grade 4 IRRs” value ([1]; Total n=42)?
A: no grade 4 IRRs reported

Q: And the “IRR of increased blood pressure” value ([1]; Total n=42)?
A: 1 (2.4%) n (%)

Q: What about the “IRR of oropharyngeal pain” value ([1]; Total n=42) of the same substance?
A: 1 (2.4%) n (%)

Q: What about the IRR of tachycardia ([1]; Total n=42) of the same substance?
A: 1 (2.4%) n (%)

Q: What about the “IRRs meeting the definition of a DLT” value ([1]; Total n=42) of the same substance?
A: None of the IRRs met the definition of a DLT

Q: What about the “Patients with an IRR” value ([1]; Total n=42) of the same substance?
A: 5 (11.9%) n (%)

Q: What about the “Number of grade 3 IRRs” value ([1]; increased blood pressure, 2-week taper, resolved on day of onset) of the same substance?
A: 1

Q: And the “Lymphopenia, TEAE of Grade >3” value [2]?
A: 20.0%

Q: What about the “Serious TEAEs in SOC General disorders and administration site conditions” value [2] of the same substance?
A: 8.0%

Q: And the “TEAEs in SOC General disorders and administration site conditions” value [2]?
A: 72.0%

Q: What about the “Mean (SD) daratumumab serum concentration” value ([3]; 1-week taper) of the same substance?
A: 706 (270) μg/mL and 706 μg/mL

Q: And the “Mean (SD) daratumumab serum concentration” value ([3]; 2-week taper)?
A: 731 (382) μg/mL and 731 μg/mL

Q: And the “Mean (SD) daratumumab serum concentration” value ([3]; 3-week taper)?
A: 604 (280) μg/mL and 604 μg/mL

Q: And the “Mean (SD) daratumumab serum concentration” value ([3]; total PK-evaluable n=37)?
A: 676 (314) μg/mL

Q: What about the “Median duration of response” value [4] of the same substance?
A: 15.7 months

Q: And the ORR [4]?
A: 52%
